According to the DeepSol protein solubility set:

Test: soluble on expression in E. coli; label from the status in PepcDB or PDB records

| Sequence | soluble on expression in E. coli |
| --- | --- |
| MRIFLDANVIADWILLKNKNQDASDPLLTERYRHMAESFKLVEEILKLKEKVSGTSQMAIAEVFGVIYDDAINMKLFREAVPASSWYWFSIRERKALSEDSQQLFLMEPHTSPQGI | not soluble |
| MRIFSRLFKARDKPKNSLFGNAYSFFFGGTSSGKAVNERTAMQTTAVYACVRILAEAIAGLPLHVYRYKEDGGKEKALTHPLYYLLHDEPNPEMTSFVFRETLMSHLLLWGNAYAQIVRDGSGRVLALYPLLPNKMTVDRAPNGELYYTYRRDSDESRVNPKAGLIYLRSDEVLHIPGLGFDGLIGYSPIAMAKNAIGMAIACEEYGASFFANGANPGGVLEHPGVLKDPAKVRESWNAVYQGSANAHRIAVLEEGMKFQPIGIPPEQAQFLETRKFQINEIARIFRVPPHMVGDLEKSSFSNIEQQSLEFVKYTLDPWVVRWEQALQKALLLPSEKRAYFVKFNVDGLLRGDYASRMNGYAVARQNGWMSANDIRELEDMNRIPAELGGDLYLVNGNMTRLADAGTFAGKNNAETEGSKVEQITKTKTGSPLLELDTKR | not soluble |
| MRIGINVGSTQVDAVILSKHGKVVAASETVIQDDETVLAIKEALVSLIRYLRDTDEVRGVFIGATSECQEVKLGKGLAKTGLIRLNRYQSQIQPLMKWPKALSDHVVYTQSVEIGEELDWFNYFQESLARLKEAEVEAIAVVGAFSPMDNCSEQLVKESLNYHLPSIPVTMSHTIGSIGFLERENAAVLNAVLSKKMKNTLKGVKDFLSSLGFHCPLWVTRNDGCLMTIEEAIEFPVLTLGSGSANSFRGGAFLAEERSCIVVHVSEGITKIGTMIQERFEESHSQTYVFGIPTNLRMPHSIVLPLGEEKQGALGHDIRHGNPSEKTKREEVLISERKGISLAERHAGSSASNLEDQQEMWSTLKQSGLDREAMTQYAERVNDSIEELQIYDQELPIVVVGSGAPCMMQRLQSQTREVVAPFGYQRCHAVGACLGMVSAEVDQVYHLKDQTKAEVIEEAKEKAIKEAERKGAFPDTISIEQVEEYPFDYLQGEVIRIRVKAVGQVKDSLEHHHHHH | not soluble |
| MRIGVIMGGVSSEKQVSIMTGNEMIANLDKNKYEIVPITLNEKMDLIEKAKDIDFALLALHGKYGEDGTVQGTLESLGIPYSGSNMLSSGICMDKNISKKILRYEGIETPDWIELTKMEDLNFDELDKLGFPLVVKPNSGGSSVGVKIVYDKDELISMLETVFEWDSEVVIEKYIKGEEITCSIFDGKQLPIISIRHAAEFFDYNAKYDDASTIEEVIELPAELKERVNKASLACYKALKCSVYARVDMMVKDGIPYVMEVNTLPGMTQASLLPKSADAAGIHYSKLLDMIIETSLRVRKEEGF | not soluble |
| MRIIETIEEMKKFSEEMREKKKTIGFVPTMGYLHEGHLSLVRRARAENDVVVVSIFVNPTQFGPNEDYERYPRDFERDRKLLEKENVDCIFHPSVEEMYPPDFSTYVEETKLSKHLCGRSRPGHFRGVCTVVTKLFNIVKPHRAYFGQKDAQQFRVLRRMVRDLNMDVEMIECPIVREPDGLAMSSRNVYLSPEERQQALSLYQSLKIAENLYLNGERDAEKIKEEMIKHLSRFDKVKIDYVEIVDEETLEPVEKIDRKVIVAVAAWVGNARLIDNTILG | soluble |
| MRIKPECALCITRQVVDVAKEITDDKSEQFKIIAWGIEKISEAYGESSVPSFMGTEIHRHIKKMSKNSDPYKNLKNVANEFALKYLNDVEKLLESDDELERLQNKVKLSIAGNVIDFGPYSTGVNIEKMVKDTLDGKLDVDFSKELLDELKNSKKVFYTCDNAGEIVFDLPLIKELKNYVEVVVSVKGSPILNDATLDDVKTAGIDKVTKVITSGTDAIGVRFEESSEEFINELNSSDFVIAKGMGNYESLTEYEEKHGQNSEKIPVYYILKAKCEPVAEHIGVSEGDNVLLRKEISKVLEHHHHHH | soluble |
| MRIVALEGIDGSGVSTHSRLLHARLAGAGVKSCLWKEPTEGPVGRLIRGFLRSTEGVDSDLMALLFAADRLWGLRLGVVERCGGSPEVLVVDRYKYSSLAYQGVGSGLEWVDAVNRKAPEAEILVYIDVPTEVALRRITARERREVFETPEFLERVKSMYEEVLRLARARGVKVIRVEGVRGGVERGIEDVQGEIAERVFEALGLARA | soluble |
| MRIVSLCPSNTELLAYLGRLDDVAAVDDSSDWPPEVKQLPKVGPDLHIDMDQVEALKPDLVVASLSVPGMERNVKELKRRGLPHLVLAPNSLDDIANDLLRLGEALGETKKAAELVRRYHDVLDWHRERAASAEPARLYWEWWPRPVFTPGGANWLSELSELAGGRNIFSDIPQASVQTEWDDVLARNPSHILLVWVGVQTKKMSPKAVTARPNAQQAEAVRTGNIHILEESLYCRPSPRLLVGLKKLAPLLHPALFPPADDSDPLLGG | not soluble |
